Reference: patent US20200299396A1 (BALIOPHARMA, published 2020)

Legend:
[1] = biological target: T1, human TNFR1 on the cellular surface of HeLa, HT1080 and Kym-1 cells (human, UniProt P19438 30-455); assay: cell-based or functional assay
T1 sequence: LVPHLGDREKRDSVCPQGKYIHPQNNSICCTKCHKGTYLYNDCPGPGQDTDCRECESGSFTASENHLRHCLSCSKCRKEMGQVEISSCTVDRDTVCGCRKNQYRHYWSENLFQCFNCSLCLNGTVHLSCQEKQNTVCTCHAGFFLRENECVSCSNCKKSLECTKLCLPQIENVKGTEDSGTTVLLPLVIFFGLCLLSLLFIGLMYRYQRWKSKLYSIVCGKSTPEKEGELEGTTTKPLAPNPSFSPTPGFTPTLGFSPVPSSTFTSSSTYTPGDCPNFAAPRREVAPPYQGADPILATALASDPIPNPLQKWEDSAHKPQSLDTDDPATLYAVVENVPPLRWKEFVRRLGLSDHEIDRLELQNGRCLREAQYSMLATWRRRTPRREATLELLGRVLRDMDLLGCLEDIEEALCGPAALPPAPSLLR

[2] = biological target: T2, Recombinant human TNFR1-Fc fusion protein (human, UniProt P19438 30-211, limits assumed); assay: ELISA under equilibrium conditions, TNFR1-Fc coated; ELISA under equilibrium conditions
T2 construct: not shown: Fc part
T2 sequence: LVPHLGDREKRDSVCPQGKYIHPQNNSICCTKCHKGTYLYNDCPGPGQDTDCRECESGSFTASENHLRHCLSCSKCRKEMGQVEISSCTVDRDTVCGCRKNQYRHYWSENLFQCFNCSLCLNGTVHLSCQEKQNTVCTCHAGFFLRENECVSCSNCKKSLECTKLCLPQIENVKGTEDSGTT
Procedure: (§1) Microtiter plates were coated with 100 μl of TNFR1-Fc fusion protein (1 μg/ml in PBS) and incubated at 4° C. overnight. The residual binding sites were blocked with 2% MPBS (skim milk in PBS, 200 μl per well) at room temperature for 2 hours and subsequently washed twice with PBS. 100 μl of the samples diluted in 2% MPBS were incubated at room temperature for 1 hour prior to the last incubation step with 100 μl of the HRP conjugated detection antibodies in 2% MPBS. Bound protein was detected with 100 μl TMB substrate solution (1 mg/ml 3,3′,5,5′-Tetramethylbenzidine[TMB], 0.006% H₂O₂ in 100 mM Na-acetate buffer, pH 6 at RT), the HRP-reaction was stopped by the addition of 50 μl 1 M H₂SO₄ and the absorption at the wavelength of 450 nm was measured using the Infinite microtiter plate reader (TECAN, Maennedorf, Switzerland). Between each incubation step and in advance of the detection, the plates were washed twice times with PBST and twice with PBS.

[3] = biological target: T1, human TNFR1 on the cellular surface of …; assay: cell-based or functional assay; remark: listed apart in the source
[4] = biological target: T2, Recombinant human TNFR1-Fc fusion …; assay: QCM at 37 C, TNFR1-Fc immobilized at ~94 ΔHz, 1:1 binding algorithm; quartz crystal microbalance, TNFR1 immobilized at ~94 ΔHz
Procedure: Real-time binding dynamics in protein-protein interactions were determined by quartz crystal microbalance measurements (Cell-200 C-Fast, Attana, Stockholm, Sweden). One of the binding partners (TNFR1-Fc) was chemically immobilized on a LNB Carboxyl Sensor Chip (3623-3103, Attana, Stockholm, Sweden) according to the manufacturer's protocol at a moderate density of ˜94 ΔHz. Binding experiments were performed with samples (analyte) diluted in PBST (PBS, 0.1% Tween 20) between 128 nM and 4 nM (1:2 dilution steps) at pH 7.4 with a flow rate of 25 μl/min at 37° C. The chip was regenerated with 25 μl 20 mM glycine, pH 2.0. Every third measurement, an injection of running buffer was measured which was subtracted from the binding curve prior to data analysis. Data were collected using the software provided by Attana and analyzed by Attaché Office Evaluation software (Attana, Stockholm, Sweden) and TraceDrawe (ridgview instruments, Vange, Sweden).

[5] = biological target: T3, human Fcγ receptor IIIa (human, UniProt P08637 17-208, limits assumed); assay: ELISA, antibody immobilized, human FcγRIII added, n=2; concentration not shown
T3 construct: also called human FcγRIII; FcγRIII
T3 sequence (P08637 17-208 limits assumed): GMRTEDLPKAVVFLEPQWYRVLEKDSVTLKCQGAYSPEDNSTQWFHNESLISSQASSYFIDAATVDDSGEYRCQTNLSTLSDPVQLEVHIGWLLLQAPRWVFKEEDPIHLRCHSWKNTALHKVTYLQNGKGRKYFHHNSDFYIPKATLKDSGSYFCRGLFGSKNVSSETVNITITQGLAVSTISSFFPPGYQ

[6] = biological target: T4, human Fcγ receptor IIb (human, UniProt P31994 46-217, limits assumed); assay: ELISA, antibody immobilized, human FcγRIIb added, n=2; concentration not shown
T4 construct: also called FcγRIIb
T4 sequence (looked up): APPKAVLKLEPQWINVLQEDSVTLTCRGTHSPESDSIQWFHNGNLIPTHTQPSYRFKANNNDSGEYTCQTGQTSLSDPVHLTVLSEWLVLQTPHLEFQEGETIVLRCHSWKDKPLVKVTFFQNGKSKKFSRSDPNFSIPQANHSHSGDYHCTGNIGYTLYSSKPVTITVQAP

[7] = biological target: T5, complement protein C1q (UniProt P02745 23-245; P02746 28-253; P02747 29-245); assay: ELISA, antibody immobilized, C1q added, n=2; concentration not shown
T5 construct: also called C1q Complement protein
T5 sequence (P02745 23-245 limits assumed, chain 1 of 3): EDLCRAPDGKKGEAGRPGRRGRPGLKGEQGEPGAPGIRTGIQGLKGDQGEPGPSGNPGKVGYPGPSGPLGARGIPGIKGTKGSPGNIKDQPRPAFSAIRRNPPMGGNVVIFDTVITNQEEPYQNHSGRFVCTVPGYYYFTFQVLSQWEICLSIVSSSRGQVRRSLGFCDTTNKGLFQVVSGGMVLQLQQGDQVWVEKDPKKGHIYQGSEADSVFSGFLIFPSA
T5 sequence (P02746 28-253 limits assumed, chain 2 of 3): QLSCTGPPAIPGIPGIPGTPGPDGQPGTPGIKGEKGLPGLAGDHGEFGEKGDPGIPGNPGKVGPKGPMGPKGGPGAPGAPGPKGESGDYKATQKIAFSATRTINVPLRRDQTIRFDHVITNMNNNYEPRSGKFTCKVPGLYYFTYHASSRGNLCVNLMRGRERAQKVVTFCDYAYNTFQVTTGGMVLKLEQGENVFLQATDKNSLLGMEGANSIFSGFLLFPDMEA
T5 sequence (P02747 29-245 limits assumed, chain 3 of 3): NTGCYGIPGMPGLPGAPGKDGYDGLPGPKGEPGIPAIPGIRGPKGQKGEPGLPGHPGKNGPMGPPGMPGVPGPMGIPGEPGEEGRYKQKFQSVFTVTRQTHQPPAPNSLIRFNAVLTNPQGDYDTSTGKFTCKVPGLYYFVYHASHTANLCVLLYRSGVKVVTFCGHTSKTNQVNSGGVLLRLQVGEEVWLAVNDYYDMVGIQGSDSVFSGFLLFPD

[8] = biological target: T6, human Fcγ receptor Ia (human, UniProt P12314 16-288, limits assumed); assay: ELISA, antibody immobilized, human FcγRI added, n=2; concentration not shown
T6 construct: also called human FcγRI; FcγRI
T6 sequence (P12314 16-288 limits assumed): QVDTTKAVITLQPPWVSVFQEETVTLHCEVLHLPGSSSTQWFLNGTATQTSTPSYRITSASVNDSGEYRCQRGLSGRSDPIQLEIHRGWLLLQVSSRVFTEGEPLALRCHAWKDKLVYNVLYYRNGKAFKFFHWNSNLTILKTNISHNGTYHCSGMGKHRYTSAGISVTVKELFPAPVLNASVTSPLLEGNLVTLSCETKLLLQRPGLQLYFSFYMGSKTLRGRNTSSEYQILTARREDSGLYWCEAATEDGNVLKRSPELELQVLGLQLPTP

[9] = biological target: T2, Recombinant human TNFR1-Fc fusion …; assay: ELISA under equilibrium conditions, TNFR1-Fc coated
Procedure: as §1

IC50, IL-6 [nM] (IL-6 release from HeLa cells, 0.1 nM TNF) [1] | IC50, IL-8 [nM] (IL-8 release from HT1080 cells, 0.1 nM TNF) [1] | EC50 [2] [nM] | fold more potent inhibition compared to ATROSAB, IL-6 release assay [3] [fold] | fold more potent inhibition compared to ATROSAB, IL-8 release assay [3] [fold] | Kd [4] [nM] | koff [4] [s⁻¹] | kon [4] [M⁻¹ s⁻¹] | binding result [5] | binding result [6] | binding result [7] | binding result [8] | fold reduction in binding activity compared to ATROSAB [9] [fold] | fold reduction in binding activity compared to Fab 13.7 [9] [fold] | Binder | IC50, Cell death induction [nM] (Kym-1 cells, TNF-induced) [1] | fold more potent inhibition compared to ATROSAB, cell death induction assay [3] [fold]
37.1 | 12.7 |  |  |  |  |  |  |  |  |  |  |  |  | Fab 13.7 (Fab, V domains shown) VH: HVQLVQSGAEVKKPGSSVKVSCKASGYTFTDFYINWVRQAPGQGLEWIGEIVPSQGEAKYNDKFKARVTITADKSTSTAYMELSSLRSEDTAVYYCARWDFLDYWGQGTTVTVSS VL: DVQMTQSPSSLSASVGDRVTITCRSSQSLLHSNGNTYLHWYQQKPGKAPKLLIYTVSNRFSGVPSRFSGSGSGTDFTLTISSLQPEDFATYYCSQSTHVPYTFGGGTKVEIKR | 9.5 | 
54.5 | 24.2 | 0.4 | 3 | 3.5 | 2.7 | 0.00098 | 370000 | no binding | no binding | no binding | no binding | 4 | 2 | Atrosimab (antibody, The Fc is modified to reduce effector functions; Produced in CHO cells; also called Fv13.7-Fc1k; VHkC/VL1C heterodimer) heavy: HVQLVQSGAEVKKPGSSVKVSCKASGYTFTDFYINWVRQAPGQGLEWIGEIVPSQGEAKYNDKFKARVTITADKSTSTAYMELSSLRSEDTAVYYCARWDFLDYWGQGTTVTVSSGTGGGSGPSVFLFPPKPKDTLMISRTPEVTCVVVDVSHEDPEVKFNWYVDGVEVHNAKTKPREEQYNSTYRVVSVLTVLHQDWLNGKEYKCKVSNKGLPSSIEKTISKAKGQPREPSVFIFPPSDEQLKSGTASVVCLVNNFYPRDIAVEWEVDNALQSGNSQESVTEQDSKDSTYSLSSTLTLSKADYEKHKVYSCSVMHEALHNHYTQKSFNRGEC light: DVQMTQSPSSLSASVGDRVTITCRSSQSLLHSNGNTYLHWYQQKPGKAPKLLIYTVSNRFSGVPSRFSGSGSGTDFTLTISSLQPEDFATYYCSQSTHVPYTFGGGTKVEIKGTGGGSGPSVFLFPPKPKDTLMISRTPEVTCVVVDVSHEDPEVKFNWYVDGVEVHNAKTKPREEQYNSTYRVVSVLTVLHQDWLNGKEYKCKVSNKGLPSSIEKTISKAKGQPREPSVFPLAPSSKSTSGGTAALGCLVKDYFPSDIAVEWESGALTSGVHTFPAVLQSSGLYSLSSVVTVPSSSLGTQTYSCSVMHEALHNHYTQKSVEPKSC | 16.2 | 4
